Experimental data published in the supplement of paper PMC7877785.
± gives the uncertainty stated by the source.

Assay: self-splicing fitness, log relative to wild type (ln ratio); higher = more splicing; Tetrahymena group I intron in knt gene, E. coli kanamycin selection, DiMSum; sequences stand for … in CUCUCU…GGAGGGAAAAGUUAUCAGGCAUGCACCUGGUAGCUAGUCUUUAAACCAAUAGAUUGCAUCGGUUUAAAAGGCAAGACCGUCAAAUUGCGGGAAAGGGGUCAACAGCCGUUCAGUACCAAGUCUCAGGGGAAACUUUGAGAUGGCCUUGCAAAGGGUAUGGUAAUAAGCUGACGGACAUGGUCCUAACCACGCAGCCAAGUCCUAAGUCAACAGAUCUUCUGUUGAUAUGGAUGCAGUUCACAGACUAAAUGUCGGUCGGGGAAGAUGUAUUCUUCUCAUAAGAUAUAGUCGGACCUCUCCUUAAUGGGAGCUAGCGGAUGAAGUGAUGCAACACUGGAGCCGCUGGGAACUAAUUUGUAUGCGAAAGUAUAUUGAUUAGUUUUGGAGUACUCGUGGUCG
Outline: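 Pooled colonies went to amplicon sequencing on an Illumina HiSeq 2500 after six replicate transformations. The plates were LB agar with 100 μg/mL carbenicillin, 50 μM IPTG and 0.2% rhamnose, with or without 25 μg/mL kanamycin, incubated overnight at 37°C or 30°C. The E. coli BL21(DE3) library had all eight P1ex-region intron nucleotides randomised, the intron placed in the knt kanamycin-resistance gene on pET-22b(+). DiMSum fitness is the error-weighted combination of replicate fold changes, kanamycin against none, normalised to wild type.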

| Sequence | self-splicing fitness (ln) (30 °C) | self-splicing fitness (ln) (37 °C) |
| --- | --- | --- |
| ACAAAGCAAUAUUACGUUGG | -2.44 ± 0.068 | -1.57 ± 0.079 |
| ACACAGCAAUAUUACGAAUC | -3.22 ± 0.15 | -2.63 ± 0.21 |
| ACACAGCAAUAUUACGACCA | -0.337 ± 0.085 | 0.147 ± 0.093 |
| ACACAGCAAUAUUACGACGG | -0.479 ± 0.073 | -0.0997 ± 0.11 |
| ACACAGCAAUAUUACGAGCG | -0.734 ± 0.074 | -0.104 ± 0.088 |
| ACACAGCAAUAUUACGAGGU | -2.85 ± 0.13 | -2.04 ± 0.14 |
| ACACAGCAAUAUUACGAUCG | -0.738 ± 0.077 | -0.032 ± 0.1 |
| ACACAGCAAUAUUACGAUGG | -1.53 ± 0.064 | -0.66 ± 0.082 |
| ACACAGCAAUAUUACGCAAG | -1.7 ± 0.1 | -0.825 ± 0.11 |
| ACACAGCAAUAUUACGCAGC | -3.73 ± 0.19 | -2.47 ± 0.17 |
| ACACAGCAAUAUUACGCGAU | -3.11 ± 0.11 | -2.02 ± 0.11 |
| ACACAGCAAUAUUACGCGCC | -0.614 ± 0.11 | -1.13 ± 0.1 |
| ACACAGCAAUAUUACGCUAC | -3.73 ± 0.35 | -2.63 ± 0.26 |
| ACACAGCAAUAUUACGCUAU | -2.81 ± 0.082 | -1.53 ± 0.079 |
| ACACAGCAAUAUUACGGAAU | -2.58 ± 0.084 | -2.31 ± 0.15 |
| ACACAGCAAUAUUACGGACU | -0.884 ± 0.054 | 0.0735 ± 0.063 |
| ACACAGCAAUAUUACGGAGA | -4.21 ± 0.21 | -2.23 ± 0.14 |
| ACACAGCAAUAUUACGGCGC | -0.533 ± 0.067 | 0.309 ± 0.079 |
| ACACAGCAAUAUUACGGGGA | -2.3 ± 0.077 | -0.729 ± 0.067 |
| ACACAGCAAUAUUACGGUGG | -2.44 ± 0.08 | -1.67 ± 0.099 |
| ACACAGCAAUAUUACGUCCA | -1.09 ± 0.089 | -0.474 ± 0.096 |
| ACACAGCAAUAUUACGUCUU | -1.17 ± 0.046 | 0.012 ± 0.058 |
| ACACAGCAAUAUUACGUGGA | -2.25 ± 0.096 | -1.18 ± 0.066 |
| ACAGAGCAAUAUUACGAAAU | -2.57 ± 0.45 | -1.01 ± 0.29 |

| Sequence | self-splicing fitness (ln) (30 °C) | self-splicing fitness (ln) (37 °C) |
| --- | --- | --- |
| ACAGAGCAAUAUUACGAAGU | -2.65 ± 0.14 | -2.58 ± 0.29 |
| ACAGAGCAAUAUUACGAGGA | -3.04 ± 0.21 | -2.49 ± 0.23 |
| ACAGAGCAAUAUUACGAUGG | -3.24 ± 0.14 | -3.32 ± 0.23 |
| ACAGAGCAAUAUUACGCACA |  | -1.39 ± 0.36 |
| ACAGAGCAAUAUUACGCACG | -3.11 ± 0.22 | -3.43 ± 0.25 |
| ACAGAGCAAUAUUACGCCAC | -2.45 ± 0.38 | -1.33 ± 0.43 |
| ACAGAGCAAUAUUACGCCAU | -3.46 ± 0.42 | -1.97 ± 0.23 |
| ACAGAGCAAUAUUACGCGAG | -2.31 ± 0.14 | -2.43 ± 0.16 |
| ACAGAGCAAUAUUACGCGGA | -3.57 ± 0.29 | -2.62 ± 0.19 |
| ACAGAGCAAUAUUACGCGGC | -3.41 ± 0.3 | -2.18 ± 0.37 |
| ACAGAGCAAUAUUACGCGGU | -4.3 ± 0.41 | -2.43 ± 0.28 |
| ACAGAGCAAUAUUACGCUAC | -3.21 ± 0.43 |  |
| ACAGAGCAAUAUUACGCUCG | -1.05 ± 0.13 | -1.12 ± 0.2 |
| ACAGAGCAAUAUUACGCUGA | -3.27 ± 0.19 | -1.47 ± 0.16 |
| ACAGAGCAAUAUUACGGAAC |  | -1.97 ± 0.36 |
| ACAGAGCAAUAUUACGGGCC | -1.79 ± 0.29 |  |
| ACAGAGCAAUAUUACGGGGG | -3.7 ± 0.19 | -2.31 ± 0.2 |
| ACAGAGCAAUAUUACGGGUA | -2.47 ± 0.36 | -3 ± 0.31 |
| ACAGAGCAAUAUUACGGUAG | -2.61 ± 0.13 | -2.49 ± 0.18 |
| ACAGAGCAAUAUUACGGUUC | -3.68 ± 0.23 | -2.16 ± 0.22 |
| ACAGAGCAAUAUUACGGUUG | -3.68 ± 0.24 | -3.02 ± 0.22 |
| ACAGAGCAAUAUUACGUGGC | -3.8 ± 0.25 | -2.31 ± 0.32 |
| ACAGAGCAAUAUUACGUUCA | -2.1 ± 0.14 | -2.33 ± 0.2 |
| ACAGAGCAAUAUUACGUUGA | -2.69 ± 0.21 | -3.28 ± 0.27 |

| Sequence | self-splicing fitness (ln) (30 °C) | self-splicing fitness (ln) (37 °C) |
| --- | --- | --- |
| ACAUAGCAAUAUUACGAACA | 0.105 ± 0.14 | -1.05 ± 0.17 |
| ACAUAGCAAUAUUACGAGAU | -4.08 ± 0.29 | -2.66 ± 0.26 |
| ACAUAGCAAUAUUACGAGUC | -3.91 ± 0.27 | -3.33 ± 0.25 |
| ACAUAGCAAUAUUACGAUUA | -0.756 ± 0.1 | -0.602 ± 0.14 |
| ACAUAGCAAUAUUACGCAAU | -3.57 ± 0.21 | -2.67 ± 0.24 |
| ACAUAGCAAUAUUACGCCAG | -2.65 ± 0.18 | -1.5 ± 0.21 |
| ACAUAGCAAUAUUACGCCCC | -1.98 ± 0.39 | -0.782 ± 0.41 |
| ACAUAGCAAUAUUACGGAGC |  | -0.767 ± 0.15 |
| ACAUAGCAAUAUUACGGAUC | -3.05 ± 0.15 | -1.21 ± 0.12 |
| ACAUAGCAAUAUUACGGAUG | -1.77 ± 0.12 | -1.6 ± 0.14 |
| ACAUAGCAAUAUUACGGCCG | -0.333 ± 0.15 | 0.385 ± 0.24 |
| ACAUAGCAAUAUUACGGCUA | -0.773 ± 0.055 | -0.391 ± 0.068 |
| ACAUAGCAAUAUUACGGGGC | -2.87 ± 0.12 | -1.81 ± 0.13 |
| ACAUAGCAAUAUUACGGGGG | -3.09 ± 0.14 | -2.58 ± 0.2 |
| ACAUAGCAAUAUUACGGUGA | -0.929 ± 0.066 | -0.247 ± 0.086 |
| ACAUAGCAAUAUUACGUCCG | -1.62 ± 0.11 | -1.2 ± 0.14 |
| ACAUAGCAAUAUUACGUGAG | -0.863 ± 0.036 | -0.206 ± 0.062 |
| ACAUAGCAAUAUUACGUUGC | -4.02 ± 0.33 | -2 ± 0.28 |
| ACCAAGCAAUAUUACGACGA | -1.11 ± 0.12 | -0.623 ± 0.13 |
| ACCAAGCAAUAUUACGCGGA | -1.11 ± 0.068 | -0.537 ± 0.077 |
| ACCAAGCAAUAUUACGCGUA | -1.11 ± 0.075 | -0.487 ± 0.075 |
| ACCAAGCAAUAUUACGCUUC | -3.27 ± 0.15 | -1.71 ± 0.12 |
| ACCAAGCAAUAUUACGGAAC | -3.63 ± 0.21 | -1.99 ± 0.2 |
| ACCAAGCAAUAUUACGGACC | -0.368 ± 0.098 | -0.214 ± 0.12 |

| Sequence | self-splicing fitness (ln) (30 °C) | self-splicing fitness (ln) (37 °C) |
| --- | --- | --- |
| ACCAAGCAAUAUUACGGCAU | -0.931 ± 0.049 | -0.0435 ± 0.066 |
| ACCAAGCAAUAUUACGGGCA | -0.376 ± 0.06 | -0.0824 ± 0.072 |
| ACCAAGCAAUAUUACGGGGU | -3.66 ± 0.14 | -3.5 ± 0.19 |
| ACCAAGCAAUAUUACGGGUC | -4.12 ± 0.17 | -2.67 ± 0.14 |
| ACCAAGCAAUAUUACGGGUU | -4.06 ± 0.14 | -3.14 ± 0.17 |
| ACCAAGCAAUAUUACGGUCG | -3.81 ± 0.22 | -2.56 ± 0.15 |
| ACCAAGCAAUAUUACGUAAG | -2.18 ± 0.063 | -1.37 ± 0.098 |
| ACCAAGCAAUAUUACGUCAA | -3.35 ± 0.17 | -3 ± 0.16 |
| ACCAAGCAAUAUUACGUCGU | -2.34 ± 0.076 | -1.88 ± 0.11 |
| ACCAAGCAAUAUUACGUCUG | -2.55 ± 0.1 | -1.02 ± 0.1 |
| ACCAAGCAAUAUUACGUUGA | -2.83 ± 0.12 | -2.01 ± 0.11 |
| ACCCAGCAAUAUUACGAAGU | -0.678 ± 0.058 | 0.183 ± 0.074 |
| ACCCAGCAAUAUUACGACAC | -2.41 ± 0.091 | -0.292 ± 0.083 |
| ACCCAGCAAUAUUACGACGC | 0.24 ± 0.085 | 0.483 ± 0.11 |
| ACCCAGCAAUAUUACGAGGA | -0.706 ± 0.068 | -1.08 ± 0.077 |
| ACCCAGCAAUAUUACGAGUU | -1.14 ± 0.048 | -0.101 ± 0.061 |
| ACCCAGCAAUAUUACGAUGG | -2.94 ± 0.095 | -1.26 ± 0.085 |
| ACCCAGCAAUAUUACGAUUU | -0.881 ± 0.054 | 0.0888 ± 0.069 |
| ACCCAGCAAUAUUACGCACG | -1.86 ± 0.067 | -1.01 ± 0.084 |
| ACCCAGCAAUAUUACGCCAG | -3.26 ± 0.21 | -2.55 ± 0.33 |
| ACCCAGCAAUAUUACGCUAU | -0.847 ± 0.066 | -0.75 ± 0.08 |
| ACCCAGCAAUAUUACGCUGG | -2.83 ± 0.14 | -2.4 ± 0.18 |
| ACCCAGCAAUAUUACGGACA | -0.0478 ± 0.08 | -0.181 ± 0.089 |
| ACCCAGCAAUAUUACGGCUC | -1.46 ± 0.058 | -0.423 ± 0.073 |
